Data as given in patent US6429304B1, “Nucleic acids encoding a katanin p60 subunit” (The Regents of the University of California, priority 1998, dated 2002).

Test system: MSU1.1 human fibroblasts
Experiment: Centrosome targeting of GFP fusion after transient transfection
Type: cell-based
Details: 2-4 hr after transfection
Procedure: To allow transient expression of a human p80 WD40-GFP fusion protein in HeLa cells, a DNA fragment containing amino acids 1-263 of human p80 katanin was generated by PCR amplification, placing a BamHI site and a Kozak consensus at the predicted translation start and an EcoRI site after the codon for a.a. 263. This BamHI-EcoRI fragment was ligated into the GFP fusion vector pEGFP-N1 (Clontech).
Both MSU1.1 and HeLa cells were grown on 18 mm glass coverslips in Optimem medium (Life Technologies) supplemented with 10% fetal bovine serum, penicillin and streptomycin. Plasmids were transfected using Superfect Reagent (Qiagen) for 2 hr after which coverslips were washed with PBS and placed in fresh culture medium at 37° C. with 5% CO2 for 1-24 hr.
For imaging of GFP-fluorescence and immunofluorescence with the human p80 katanin antibody or with the γ-tubulin antibody, monoclonal GTU88 (Sigma Chemical), cells on coverslips were fixed either in −20° C. methanol or in 0.5×PBS, 3.7% formaldehyde, 75% methanol at 22° C. for 10 min followed by rehydration in TBST. Antibody labelling was carried out in TBST containing 4% BSA. Images were captured with a Nikon Microphot SA microscope, 100×Plan Fluor 1.3 objective, Photometrics Quantix camera and IP Lab Spectrum software (Scanalytics).

B1: p80 WD40-GFP: fusion of the six WD40 repeats of human p80 katanin (a.a. 1-263) to the N-terminus of green fluorescent protein (protein)
chain: MATPVVTKTAWKLQEIVAHASNVSSLVLGKASGRLLATGGDDCRVNLWSINKPNCIMSLTGHTSPVESVRLNTPEELIVAGSQSGSIRVWDLEAAKILRTLMGHKANICSLDFHPYGEFVASGSQDTNIKLWDIRRKGCVFRYRGHSQAVRCLRFSPDGKWLASAADDHTVKLWDLTAGKMMSEFPGHTGPVNVVEFHPNEYLLASGSSDRTIRFWDLEKFQVVSCIEGEPGPVRSVLFNPDGCCLYSGCQDSLRVYGWEPER
modifications: left off: large carriers
notes: fusion of the six WD40 repeats of human p80 katanin (a.a. 1-263) to the N-terminus of green fluorescent protein
How did the “localization of GFP fluorescence” value turn out when B1 was run?
The value was “co-localized with γ-tubulin staining”.
